Assay results from paper PMC11459180, “Structural basis for adhesin secretion by the outer-membrane usher in type 1 pili” (Proceedings of the National Academy of Sciences of the …, 2024).

Key:
[1] = target: T1, outer-membrane usher FimD (Escherichia coli, UniProt P30130 46-878); experiment: cryo-EM structure; details: both partners purified
T1 sequence: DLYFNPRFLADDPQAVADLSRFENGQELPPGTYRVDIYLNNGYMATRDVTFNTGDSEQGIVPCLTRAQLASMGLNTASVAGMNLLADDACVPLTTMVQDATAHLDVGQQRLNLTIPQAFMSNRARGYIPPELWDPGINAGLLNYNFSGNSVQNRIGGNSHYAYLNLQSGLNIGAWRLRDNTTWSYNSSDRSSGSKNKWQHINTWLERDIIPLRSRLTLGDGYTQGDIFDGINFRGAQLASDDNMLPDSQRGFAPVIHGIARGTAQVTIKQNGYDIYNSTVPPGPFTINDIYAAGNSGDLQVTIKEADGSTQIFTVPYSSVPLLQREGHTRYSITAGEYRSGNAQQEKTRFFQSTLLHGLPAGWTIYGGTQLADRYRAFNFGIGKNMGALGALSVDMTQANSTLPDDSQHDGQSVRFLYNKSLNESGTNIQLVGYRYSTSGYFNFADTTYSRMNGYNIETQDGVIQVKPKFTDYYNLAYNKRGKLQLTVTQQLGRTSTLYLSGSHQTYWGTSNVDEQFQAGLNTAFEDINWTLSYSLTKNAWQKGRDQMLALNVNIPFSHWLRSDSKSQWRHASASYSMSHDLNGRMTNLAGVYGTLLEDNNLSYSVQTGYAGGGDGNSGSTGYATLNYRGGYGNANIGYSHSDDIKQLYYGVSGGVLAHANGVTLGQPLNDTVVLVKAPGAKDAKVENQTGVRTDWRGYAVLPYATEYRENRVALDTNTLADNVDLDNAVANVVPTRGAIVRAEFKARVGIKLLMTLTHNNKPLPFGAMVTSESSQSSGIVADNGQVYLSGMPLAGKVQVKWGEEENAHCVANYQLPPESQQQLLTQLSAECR

[2] = target: T2, adhesin FimH (wild type) (Escherichia coli, UniProt P08191 22-300); experiment: cryo-EM structure; FimD–FimCH complex, second class of particles in the same purified sample and dataset; ~3.5 Å; map fits PDB 3RFZ; details: both partners purified
T2 construct: also called FimHWT; tip adhesin
T2 sequence (P08191 22-300): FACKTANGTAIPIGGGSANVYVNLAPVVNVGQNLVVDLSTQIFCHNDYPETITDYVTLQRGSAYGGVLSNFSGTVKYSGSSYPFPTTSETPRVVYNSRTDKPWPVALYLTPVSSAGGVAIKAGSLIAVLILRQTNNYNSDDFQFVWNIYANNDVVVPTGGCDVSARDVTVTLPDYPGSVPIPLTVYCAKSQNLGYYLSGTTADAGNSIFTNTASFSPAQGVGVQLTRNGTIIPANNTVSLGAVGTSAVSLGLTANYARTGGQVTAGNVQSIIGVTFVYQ

B1: periplasmic chaperone FimC with a C-terminal polyhistidine tag (natural protein)
chain: GVALGATRVIYPAGQKQEQLAVTNNDENSTYLIQSWVENADGVKDGRFIVTPPLFAMKGKKENTLRILDATNNQLPQDRESLFWMNVKAIPSMDKSKLTENTLQLAIISRIKLYYRPAKLALPPDQAAEKLRFRRSANSLTLINPTPYYLTVTELNAGTRVLENALVPPMGESTVKLPSDAGSNITYRTINDYGALTPKMTGVME
notes: also called FimChis; FimCHis; not shown: polyhistidine, C-terminal, kept
binding result [1]: binds
binding result [2]: binds
